Publication doi:10.1101/2020.12.08.416511 (bioRxiv, 2020)

Molecular target: human β-cardiac myosin subfragment 1 heavy chain (amino acids 1-841) (human, UniProt P12883 1-841)
Test: pull-down

human β-cardiac myosin subfragment 1 heavy chain (amino acids 1-841), sequence (P12883 1-841): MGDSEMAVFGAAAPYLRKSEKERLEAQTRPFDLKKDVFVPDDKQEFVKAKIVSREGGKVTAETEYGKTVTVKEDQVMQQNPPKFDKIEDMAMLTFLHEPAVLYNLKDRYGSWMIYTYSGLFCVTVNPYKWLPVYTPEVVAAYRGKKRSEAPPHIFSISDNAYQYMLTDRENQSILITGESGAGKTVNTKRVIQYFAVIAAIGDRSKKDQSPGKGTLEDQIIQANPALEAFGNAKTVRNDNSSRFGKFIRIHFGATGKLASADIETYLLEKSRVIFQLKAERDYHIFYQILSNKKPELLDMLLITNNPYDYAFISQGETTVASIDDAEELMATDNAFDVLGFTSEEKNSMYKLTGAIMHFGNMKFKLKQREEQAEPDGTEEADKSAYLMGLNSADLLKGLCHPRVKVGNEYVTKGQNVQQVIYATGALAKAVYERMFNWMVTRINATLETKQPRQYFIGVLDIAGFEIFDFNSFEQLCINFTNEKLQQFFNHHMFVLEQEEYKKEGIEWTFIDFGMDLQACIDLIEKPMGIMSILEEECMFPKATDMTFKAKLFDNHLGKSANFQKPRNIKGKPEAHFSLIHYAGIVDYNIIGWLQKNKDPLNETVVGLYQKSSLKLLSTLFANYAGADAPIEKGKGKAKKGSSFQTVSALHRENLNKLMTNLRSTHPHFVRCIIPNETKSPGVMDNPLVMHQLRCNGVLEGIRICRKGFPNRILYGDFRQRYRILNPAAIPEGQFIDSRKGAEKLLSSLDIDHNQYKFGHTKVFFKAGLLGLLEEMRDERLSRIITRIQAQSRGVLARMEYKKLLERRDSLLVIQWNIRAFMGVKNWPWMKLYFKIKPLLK

stoichiometry N: 1 A488RLC per M2β-S1
B1: Alexa 488-labeled human ventricular cardiac regulatory light chain (V105C) (natural protein)
chain: MAPKKAKKRAGGANSNVFSMFEQTQIQEFKEAFTIMDQNRDGFIDKNDLRDTFAALGRVNVKNEEIDEMIKEAPGPINFTVFLTMFGEKLKGADPEETILNAFKCFDPEGKGVLKADYVREMLTTQAERFSKEEVDQMFAAFPPDVTGNLDYKNLVHIITHGEEKD
modifications: Alexa Fluor 488 C5 maleimide on the single reactive cysteine at position 105
